Experimental data from patent US20150344587A1.

Tests used:
CD20 [1] = biological target: CD20 (UniProt P11836); assay: binding to CD20 after 37° C. for 3 days; method not stated
CD20 [2] = biological target: CD20 (UniProt P11836); assay: binding to CD20 after 37° C. for 7 days; method not stated

## (Fucα1,6)GlcNAc-Rituximab (antibody)
CD20 [1]
  loss of binding affinity: 10%
CD20 [2]
  loss of binding affinity: 20%
